Source: US20040116336A1, “Peptide derivatives” (priority 2002, published 2004)

Legend:
[1] = biological target: APJ (orphan G protein-coupled receptor protein); assay: radioligand competition, compound of Ref. Ex. 2 as labelled ligand, CHO-A10 membrane fraction
[2] = biological target: APJ (orphan G protein-coupled receptor protein); assay: radioligand competition, 125I-labelled compound of Ref. Ex. 1 (100 pM), CHO-A10 membrane fraction
[3] = biological target: APJ (orphan G protein-coupled receptor protein); assay: cell-based or functional assay

APJ (orphan G protein-coupled receptor protein), sequence (P35414 whole entry): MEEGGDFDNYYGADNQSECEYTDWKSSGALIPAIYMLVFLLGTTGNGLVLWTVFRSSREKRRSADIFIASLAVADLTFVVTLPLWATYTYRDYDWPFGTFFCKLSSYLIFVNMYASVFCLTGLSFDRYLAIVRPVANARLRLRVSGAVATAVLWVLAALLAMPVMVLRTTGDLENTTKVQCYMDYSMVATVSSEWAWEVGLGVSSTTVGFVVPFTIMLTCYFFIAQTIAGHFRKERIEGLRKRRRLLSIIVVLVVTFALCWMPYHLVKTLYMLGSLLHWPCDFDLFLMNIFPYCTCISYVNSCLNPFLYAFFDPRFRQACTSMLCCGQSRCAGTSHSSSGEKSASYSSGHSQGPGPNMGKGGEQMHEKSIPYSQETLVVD

| IC50 [1] [nM] | IC50 [2] [nM] | EC50, inhibition of forskolin-stimulated cAMP production (CHO-A10 clone 6 cells) [3] [nM] | Substance |
| --- | --- | --- | --- |
| 0.1 | 0.2 | – | Arg-Arg-Gln-Arg-Pro-Arg-Leu-Ser-Ala-Arg-Gly-Pro-Met-Pro-Phe(Cl) (peptide) |
| 0.18 | 0.32 | 0.32 | Arg-Arg-Gln-Arg-Pro-Arg-Leu-Ser-Ala-Arg-Gly-Pro-Met-Pro-Phe(Cl)-NH2 (peptide) |
| 0.066 | 8 | 0.38 | Arg-Pro-Arg-Leu-Phe-His-Lys-Gly-Pro-Met-Pro-Phe(Cl) (peptide) |
| 0.29 | – | 0.19 | Arg-Pro-Arg-Leu-Ser-Ala-Arg-Gly-Gly-Met-Pro-Phe(Cl) (peptide) |
| 0.09 | 0.27 | 0.27 | Arg-Pro-Arg-Leu-Ser-Ala-Arg-Gly-N-MeAla-Met-Pro-Phe(Cl) (peptide) |
| 0.064 | 0.37 | 0.37 | Arg-Pro-Arg-Leu-Ser-Ala-Arg-Gly-Pro-Ala-Pro-Phe(Cl) (peptide) |
| 0.036 | 0.91 | 0.32 | Arg-Pro-Arg-Leu-Ser-Ala-Arg-Gly-Pro-Met-Pro-Phe(Cl) (peptide) |
| 0.11 | 0.69 | 0.69 | Arg-Pro-Arg-Leu-Ser-Dap(Ac)-Arg-Gly-Pro-Cha-Pro-Phe(Cl) (peptide) |
| 0.26 | 0.52 | 0.52 | Arg-Pro-Arg-Leu-Ser-Dap-Arg-Gly-Pro-Cha-Pro-Phe(Cl) (peptide) |
| – | 1.4 | 0.41 | Arg-Pro-Arg-Leu-Ser-His-Lys-Gly-Pro-Cha-Pro-Phe(Cl) (peptide) |
| 0.17 | – | 0.16 | Arg-Pro-Arg-Leu-Ser-His-Lys-Gly-Pro-Met-Phe(Cl) (peptide) |
| 0.48 | – | 0.43 | pGlu-Arg-Pro-Arg-Leu-Ser-His-Lys-Gly-Pro-Met-Phe(Cl) (peptide) |
| – | – | 0.4 | pGlu-Arg-Pro-Arg-Leu-Ser-His-Lys-Gly-Pro-Met-Pro-Nal(2) (peptide) |
